Test results reported in US20030017169A1, “Controlled release systems for polymers” (priority 2000, published 2003).
Where two headings read alike, the source gives them in different places.

How the values were obtained:
[1] = Expected pharmacokinetics of soluble and/or released interferon α in the mouse; format: in vivo; details: for a 20 g mouse
Protocol: Animal Study. […] Mice used for this study were Balb/c transgenic for the human Interferon α2b gene (Braun et al. 1997, Palleroni et al. 1997). Three mice were used for each formulation. As a, control, one set of mice was injected with 50 μg of soluble human IFN-α001. […] Thus, for a 20 g mouse, the volume of distribution should be ˜8 ml. At 24 hours after administration, given a half-life of 1 hr, we would predict that the serum concentration remaining from a 50 μg dose would be ˜1 pg/ml. In practice, all of the sera of this group of mice were below the detection limit of the ELISA of 40 pg/ml. To test our formulation strategy, we produced 5 different interferon formulations. Human IFN-α2b, human IFN-α001, human IFN-α012, and murine IFN-α formulations were allowed to mature for 18 hr. A fifth formulation contained human IFN-α001 and matured for 3 hours prior to centrifugation. The human IFN-α formulations were produced at 0.4 mg/ml protein with 25 mM NaOAc pH 5.4, 6 mM Tris pH 8.0, 50 mM NaCl, 1.25% glycerol, with particle formation intitiated by addition of N-propanol to 16%. […] Serum was collected at 24 hours post injection, mice in all groups recieving a human interferon had immunoreactive interferon in their serum as determined by ELISA (PBL Multispecies ELISA # 41105). […] No interferon was detected at the 96 hours or 168 hours time points.

[2] = mouse; expected from published studies and own work; cited from earlier work

In the case of interferon α, the volume of distribution [1] is given as roughly 8 mL and the volume of distribution [2] is given as “about 0.4 ml/g”.
